The source of these data is US20110250613A1, “Arrayed Multiple Ubiquitin Binding Domains as Linkage-specific Polyubiquitin Affinity Reagents” (THE JOHNS HOPKINS UNIVERSITY, priority 2009, published 2011).

In data set [1] the target is T1, K48-Ub2 (Homo sapiens, UniProt P0CG47, K48R).
T1 construct: Ub and K48- and K63-linked diUb and tetraUb were made as described; made in house
As to the kind of experiment: Fluorescence anisotropy binding of fluorescent tUIM peptides to K48-Ub2. The following applies: single-site fit, 25° C., pH 7.4. Background: Polarisation of emitted light reports the rotation of a fluorescent probe.
Procedure: Fluorescence Anisotropy Binding Assays. Fluorescence anisotropy measurements were made using a Fluoromax 4 fluorometer in L format, thermostatted at 25° C. Excitation and emission monochromators were set at 492 nm and 520 nm, respectively. Slit widths were 3 nm for diUb-binding assays (1 mM fluorophore) or 6 nm for tetraUb-binding assays (0.1 mM fluorophore). Anisotropies were calculated by the instrument software, and the overall intensity of the fluorescence signal was monitored at each point with the polarizers oriented at the magic angle. All measurements were made in fluorescence buffer (25 mM Na phosphate [pH 7.4], 150 mM NaCl, 5 mM β-mercaptoethanol, 1 mM EDTA, and either 0.005% surfactant P20 (BIACORE) or 0.05% Brij35). Concentrations of the fluorescent proteins were calculated using the fluorescein extinction coefficient at 494 nm, 68000 M^-1 cm^-1. (poly)Ub concentrations were assessed by absorbance at 280 nm using the extinction coefficient 0.16 (mg/ml)^-1 cm^-1 ([…] and Raasi, 2005). Fluorescence anisotropy data were fit with a single-site binding model as described (Wilkinson, 2004).

For data set [2], the target named is T2, K63-Ub2 (Homo sapiens, UniProt P0CG47, K63R).
T2 construct: Ub and K48- and K63-linked diUb and tetraUb were made as described; made in house
As to the kind of experiment: Fluorescence anisotropy binding of fluorescent tUIM peptides to K63-Ub2. The following applies: for Kd: fluorescence anisotropy, single-site fit, 25° C., pH 7.4. An excerpt: (§1) Fluorescent Labeling. Rap80 tUIM peptides were fluorescently-labeled on the sulfhydryl group of C121 (see FIG. 1). For longer Rap80 constructs, all cysteines except C121 were mutated to serine for site-specific labeling. Ataxin-3 and Vps27 UIM peptides were labeled on a single cysteine introduced at the C-terminus. Fluorescein-5-maleimide (Pierce) was coupled to cysteines following the manufacturer's instructions. After desalting through Sephadex G-25 resin, fluorescein-labeled tUIM peptides were separated from unlabeled peptides by anion-exchange chromatography (MonoQ column, GE Biosciences) by elution with a NaCl gradient in 50 mM Tris buffer, pH 7.9. The labeled peptides were essentially 100% pure by SDS-PAGE and Coomassie blue staining, and MALDI-TOF mass spectrometry confirmed the addition of a single fluorescein moiety. Fluorescence Anisotropy Binding Assays. Fluorescence anisotropy measurements were made using a Fluoromax 4 fluorometer in L format, thermostatted at 25° C. Excitation and emission monochromators were set at 492 nm and 520 nm, respectively. Slit widths were 3 nm for diUb-binding assays ([…]) or 6 nm for tetraUb-binding assays ([…]). Anisotropies were calculated by the instrument software, and the overall intensity of the fluorescence signal was monitored at each point with the polarizers oriented at the magic angle. All measurements were made in fluorescence buffer (25 mM Na phosphate [pH 7.4], 150 mM NaCl, 5 mM β-mercaptoethanol, 1 mM EDTA, and either 0.005% surfactant P20 (BIACORE) or 0.05% Brij35). Concentrations of the fluorescent proteins were calculated using the fluorescein extinction coefficient at 494 nm, 68000 M^-1 cm^-1. (poly)Ub concentrations were assessed by absorbance at 280 nm using the extinction coefficient 0.16 (mg/ml)^-1 cm^-1 ([…] and Raasi, 2005). Fluorescence anisotropy data were fit with a single-site binding model as described (Wilkinson, 2004). The equilibrium constants for wild-type Vps27 peptide binding to K63 and K48 Ub4 were determined by competition with the fluorescent Vps27 7aa linker peptide as described (Wilkinson, 2004).

The target in data set [3] is K48-Ub4. The experiment in a line: Fluorescence anisotropy binding of fluorescent tUIM peptides to K48-Ub4.
Text: as §1

For data set [4], the target named is T3, K63-Ub4 (Homo sapiens, UniProt P0CG47, K63R).
T3 construct: Ub and K48- and K63-linked diUb and tetraUb were made as described; made in house
The experiment in a line: Fluorescence anisotropy binding of fluorescent tUIM peptides to K63-Ub4.
Text: as §1

The subject of data set [5] is K63-Ub4. Described as above.
Text: as §1

Data set [6] concerns K63-Ub2. The experiment in a line: Fluorescence anisotropy binding of fluorescent tUIM peptides to K63-Ub2.
Text: as §1

Data set [7] is described as follows: CD measurements of helical content of tUIM peptides. Type of data set: physicochemical. The following applies: whole-spectrum interpretation of CD; peptide without vector-derived residues. The procedure:
Measurements of 3 samples were collected and are shown in FIG. 2D: (1) 153 μM Rap80 tUIM alone, (2) 153 μM K63-Ub2 alone, and (3) a mixture of 153 μM Rap80 tUIM with 153 μM K63-Ub2. The contribution of Rap80 tUIM to spectrum (3) was sought, so that the helical content of the bound tUIM could be estimated. […] Therefore, the difference between spectrum (3) and spectrum (2) will give the contribution from Rap80 tUIM to the total CD spectrum of the Rap80-K63-Ub2 mixture. (A) The spectrum of unbound Rap80 [spectrum (1)] is shown here as triangles. The contribution of Rap80 to spectrum (3) was calculated as (3)−(2), and is shown here as squares. Because the mixture of Rap80 with K63-Ub2 is not at saturating concentrations, bound and unbound Rap80 are both present in the solution. The observed helical fraction (Hmix) for this complex mixture can be described by:
Where Fbound and Funbound are the fractions of the bound and unbound forms of Rap80 present in the mixture, respectively, and Hbound and Hunbound are the helical contents of the bound and unbound forms of Rap80, respectively. […] (B) Shown here is a summary of the secondary structure predictions from two methods and the corresponding Hbound values calculated as described above. […]
CD Measurements. […] Peptide concentrations were independently determined before each CD reading from absorbance measurements (fluorescein) of samples in the CD cuvette.

The mark [8] stands for this setting: fluorescence anisotropy, single-site fit, 25° C., pH 7.4.
[9] abbreviates: fluorescence anisotropy Kd values.
[10] abbreviates: determined by competition with the fluorescent Vps27 7aa linker peptide.

B1: Rap80 2 x linker: Rap80 tUIM peptide with 14-residue linker REVNSQEREVNSQE (protein)
peptide: PSSHHHHHHSSGLVPRGSHMTEEEQFALALKMSEQEAREVNSQEREVNSQEEEEEELLRKAIAESLNSCRPS
What is called Kd is a measure of binding affinity in units of concentration. A lower Kd goes with higher affinity. In the case of B1, the Kd in data set [1] came out at 170 µM; in data set [2] it was 150 µM.

B2: ataxin-3 Rap80 linker: ataxin-3 UIMs spliced together with the Rap80 linker REVNSQE (protein)
peptide: PSSHHHHHHSSGLVPRGSHMDEDEEDLQRALALSRQEIREVNSQEEDEEADLRRAIQLSMQGSSRNC
For the molecule B2, the Kd in data set [3] (setting [8]) was found to be 7.8 µM; in data set [4] (setting [8]), 11 µM; in data set [1], 160 µM; in data set [2] it was 60 µM.

B3: ataxin-3 7A linker: ataxin-3 UIMs joined by a 7-alanine linker (protein)
peptide: PSSHHHHHHSSGLVPRGSHMDEDEEDLQRALALSRQEIAAAAAAAEDEEADLRRAIQLSMQGSSRNC
With B3, the values for the Kd in data set [3] (setting [8]), in data set [1] and in data set [2] were 9.3 µM, 140 µM and 17 µM, respectively.

B4: Rap80 (residues 1-233): N-terminal 233 residues of Rap80, fluorescently labeled on the same UIM cysteine (protein)
chain: MPRRKKKVKEVSESRNLEKKDVETTSSVSVKRKRRLEDAFIVISDSDGEEPKEENGLQKTKTKQSNRAKSLAKRKIAQMTEEEQFALALKMSEQEAREVNSQEEEEEELLRKAIAESLNSCRPSDASATRSRPLATGPSSQSHQEKTTDSGLTEGIWQLVPPSLFKGSHISQGNEAEEREEPWDHTEKTEEEPVSGSSGSWDQSSQPVFENVNVKSFDRSTGHSAEHTQSGKP
Consider B4, for which, in data set [5] (solution fluorescence anisotropy), the “preference for K63-Ub4 over K48-Ub4” value is reported as 7 fold.

B5: Rap80 6aa linker: Rap80 tUIM peptide with 6-residue linker REVAAE (protein)
peptide: PSSHHHHHHSSGLVPRGSHMTEEEQFALALKMSEQEAREVAAEEEEEELLRKAIAESLNSCRPS
As for B5, the values for the Kd in data set [1] and in data set [2] were 160 µM and 87 µM, respectively.

B6: Vps27 7aa linker: Vps27 UIMs connected with 7-residue linker RAEEKVK (protein)
peptide: PSSHHHHHHSSGLVPRGSHMEEEEDPDLKAAIQESLREARAEEKVKEDEEELIRKAIELSLKESRNCA
Turning to B6, the Kd in data set [3] (setting [8]) stood at 6.5 µM; in data set [4] (setting [8]), 0.62 µM; in data set [1], 98 µM; in data set [2], 2.2 µM.

B7: Rap80 (WT): His6-tagged human Rap80 tandem UIM peptide, linker REVNSQE, fluorescein-labeled on C121; sequence in Table 1 (protein)
peptide: PSSHHHHHHSSGLVPRGSHMTEEEQFALALKMSEQEAREVNSQEEEEEELLRKAIAESLNSC(fluorescein)RPS
As for B7, in data set [3] (setting [9]), the “bound K48-Ub4 tighter than K48-Ub2” value is “more than 11 times”. In data set [6] (setting [9]), the “preference for K63-Ub2 over monoUb” value came out at 24 fold. For the same molecule, the “preference for K63-Ub2 over K48-Ub2” value in data set [6] (from Kd values) is 7 fold. In addition, in data set [2], binding was characterised by a dissociation constant (Kd) of 21.6 ± 0.8 µM. Also, in data set [7], the “α-helical content, K63-Ub2-bound form” value is given as approximately 100% and the “α-helical content, unbound form” value is 30%-35%.

B8: Rap80 7A linker: Rap80 UIMs linked by 7 alanine residues (protein)
peptide: PSSHHHHHHSSGLVPRGSHMTEEEQFALALKMSEQEAAAAAAAAEEEEELLRKAIAESLNSCRPS
Regarding B8, the Kd in data set [1] is 160 µM; in data set [2] it was 3.6 µM. Further, in data set [2] (Table 2 Kd values), the “binds K63-Ub2 more tightly than Rap80 with the wild-type linker” value is on record as 6 fold.

B9: Rap80 S101E: Rap80 tUIM peptide, linker REVNEQE (protein)
peptide: PSSHHHHHHSSGLVPRGSHMTEEEQFALALKMSEQEAREVNEQEEEEEELLRKAIAESLNSCRPS
For the molecule B9, the Kd in data set [1] came out at 170 ± 5 µM; in data set [2], 16 µM.

B10: unlabeled Rap80 tUIM peptide: unlabeled version of the fluorescent Rap80 tUIM peptide (protein)
peptide: PSSHHHHHHSSGLVPRGSHMTEEEQFALALKMSEQEAREVNSQEEEEEELLRKAIAESLNSCRPS
Usually Ki stands for a dissociation constant, usually derived from enzyme kinetics or from competition with a known ligand. Consider B10, for which the Ki in data set [2] (unlabeled peptide titrated against fluorescent Rap80 tUIM peptide at saturating K63-Ub2, read-out: Ki for the binding inhibition) is 24 µM.

B11: Rap80 S101A: Rap80 tUIM peptide, linker REVNAQE (protein)
peptide: PSSHHHHHHSSGLVPRGSHMTEEEQFALALKMSEQEAREVNAQEEEEEELLRKAIAESLNSCRPS
B11: the dissociation constant (Kd) was determined as 152 ± 6 µM in data set [1] and 11 µM in data set [2].

B12: Rap80 DLKAAIQ: Rap80 tUIM peptide, linker DLKAAIQ (protein)
peptide: PSSHHHHHHSSGLVPRGSHMTEEEQFALALKMSEQEADLKAAIQEEEEELLRKAIAESLNSCRPS
As for B12, the Kd in data set [1] was 129 ± 5 µM; in data set [2], 10 µM.

B13: Rap80 ARLEEKV: Rap80 tUIM peptide, linker ARLEEKV (protein)
peptide: PSSHHHHHHSSGLVPRGSHMTEEEQFALALKMSEQEAARLEEKVEEEEELLRKAIAESLNSCRPS
B13: the results for the Kd in data set [1] and in data set [2] were 230 µM and 17 µM, respectively.

B14: Vps27 (WT): yeast Vps27 tandem UIM peptide with unstructured 25-residue linker (protein)
peptide: PSSHHHHHHSSGLVPRGSHMDRDYSTPEDEEELIRKAIELSLKESRNSASSEPIVPVVESKNEVKRQEIEEEEDPDLKAAIQESLREAEEAKLRSERQKAC
B14: the Kd in data set [3] (setting [10]) is 31 µM; in data set [4] (setting [10]), 29 µM; in data set [1], 211 µM; in data set [2], 67 µM. Moreover, the “binding of K63-Ub4 versus K48-Ub4” value in data set [5] (fluorescence anisotropy) is listed as “indistinguishably”.
